Substitutions are numbered along the chain they refer to. Numbers in names are those of the source.

Consider ten molecules from publication PMC3983244, “Location of Dual Sites in E. coli FtsZ Important for Degradation by ClpXP; One at the C-Terminus and One in the Disordered Linker” (PLoS ONE, 2014).

In data set [1] the target is E. coli FtsZ (wild type) (E. coli) (UniProt P0A9A6).
Data set [2] concerns the target FtsZ(K380A) (E. coli) (UniProt P0A9A6).
For data set [3], the target named is FtsZ(R379E) (E. coli) (UniProt P0A9A6).
The target of data set [4] is FtsZ(Δ375-383) (E. coli) (UniProt P0A9A6).
Data set [5] deals with FtsZ(Δ380-383) (E. coli) (UniProt P0A9A6).
The target in data set [6] is FtsZ(F377A) (E. coli) (UniProt P0A9A6).
Data set [7] has as its target FtsZ(P375G) (E. coli) (UniProt P0A9A6).
Data set [8] deals with the molecule itself. As to the kind of experiment: 90° light scattering; 8 µM FtsZ wild type or mutant in assembly buffer, polymerisation after addition of 1 mM GTP; self-association into polymers.
For data set [9], the target named is T1, ClpX(E185Q) (E. coli, UniProt P0A6H1 1-424, E185Q).
T1 construct: ClpX, Escherichia coli, ATP hydrolysis defective mutant E185Q; Concentrations are reported for ClpX hexamers; also called ATP hydrolysis defective mutant of ClpX
Nature of the data set: co-sedimentation; 250 pmol FtsZ wild type or mutant polymerised with 2 mM GTP in assembly buffer (50 mM MES pH 6.5, 50 mM KCl, 10 mM MgCl2) with acetate kinase and acetyl phosphate; 1.5, 5.0 or 12.5 pmol ClpX(E185Q) and 4 mM ATP added, 25 µl, 10 min; 129,000×g 30 min; SDS-PAGE, Coomassie, densitometry; background without GTP subtracted. As to conditions: both partners purified.

Data set [10] deals with the molecule itself. As to the kind of experiment: negative-stain electron microscopy; FtsZ mutant proteins (5 µM) incubated with GTP, negative staining with uranyl acetate; filaments.
For data set [11], the target named is E. coli FtsZ (wild type) (E. coli) (UniProt P0A9A6). This is another data set of the same source.

“E. coli ClpX (wild type) (from UniProt P0A6H1 1-424) (enzyme)” registered a rate of degradation of fluorescent FtsZ (10 µM) by ClpXP (1 µM) in the absence of GTP, ultrafiltration assay in data set [1] of 0.11 min⁻¹. Also, the rate of degradation of fluorescent FtsZ (10 µM) by ClpXP (1 µM) in the presence of GTP, ultrafiltration assay in data set [1] is 0.2 min⁻¹. The figures for the reduction of the rate of degradation by ClpXP against wild type FtsZ, in both the presence and absence of GTP in data set [2] and in data set [3] were 55% and 75%, respectively. Further, the reduction of the rate of degradation by ClpXP against wild type FtsZ, in the absence of GTP in [4] and in [5] was 65% each time. The reduction of the rate of degradation by ClpXP against wild type FtsZ, in the presence of GTP in [4] and in data set [5] was 75% each time. The reduction of the rate of degradation by ClpXP against wild type FtsZ, in the presence of GTP (no similar reduction without GTP) in [6] and in data set [7] was 50% in each case.

B1: E. coli FtsZ (wild type) (natural protein, UniProt P0A9A6 1-383, looked up)
chain: MFEPMELTNDAVIKVIGVGGGGGNAVEHMVRERIEGVEFFAVNTDAQALRKTAVGQTIQIGSGITKGLGAGANPEVGRNAADEDRDALRAALEGADMVFIAAGMGGGTGTGAAPVVAEVAKDLGILTVAVVTKPFNFEGKKRMAFAEQGITELSKHVDSLITIPNDKLLKVLGRGISLLDAFGAANDVLKGAVQGIAELITRPGLMNVDFADVRTVMSEMGYAMMGSGVASGEDRAEEAAEMAISSPLLEDIDLSGARGVLVNITAGFDLRLDEFETVGNTIRAFASDNATVVIGTSLDPDMNDELRVTVVATGIGMDKRPEITLVTNKQVQQPVMDRYQQHGMAPLTQEQKPVAKVVNDNAPQTAKEPDYLDIPAFLRKQAD
notes: FtsZ, Escherichia coli, wild type; Unlabelled in the co-sedimentation assay; labelled with Alexa fluor succinimidyl ester (0.5-5.0 mol/mol) in the degradation reactions; Assembles into polymers with GTP; also called wild type FtsZ
In the case of B1, the binding result in data set [8] and in data set [9] was “binds” throughout.

B2: FtsZ(356AAA) (natural protein, E. coli, UniProt P0A9A6 1-383, looked up)
chain: B1 chain with K356A, V357A, V358A
notes: source: E. coli BL21 (λDE3), purified like wild type FtsZ
In the case of B2, the binding result in data set [8] and in data set [9] was “binds” throughout.

B3: FtsZ(352AAA) (natural protein, E. coli, UniProt P0A9A6 1-383, looked up)
chain: B1 chain with K352A, P353A, V354A
notes: as for B2
In the case of B3, the binding result in data set [10] and in [9] was “binds” throughout.

B4: FtsZ(K380A) (natural protein, E. coli, UniProt P0A9A6 1-383, looked up)
chain: B1 chain with K380A
notes: FtsZ, Escherichia coli, substitution K380A; source: E. coli BL21 (λDE3), purified like wild type FtsZ
With B4, the binding result in data set [8] is “binds”.

B5: FtsZ(R379E) (natural protein, E. coli, UniProt P0A9A6 1-383, looked up)
chain: B1 chain with R379E
notes: FtsZ, Escherichia coli, substitution R379E; source: E. coli BL21 (λDE3), purified like wild type FtsZ
With B5, the binding result in data set [10] is listed as “binds”.

B6: FtsZ(Δ380-383) (domain or fragment, E. coli, UniProt P0A9A6 1-379, looked up)
chain: MFEPMELTNDAVIKVIGVGGGGGNAVEHMVRERIEGVEFFAVNTDAQALRKTAVGQTIQIGSGITKGLGAGANPEVGRNAADEDRDALRAALEGADMVFIAAGMGGGTGTGAAPVVAEVAKDLGILTVAVVTKPFNFEGKKRMAFAEQGITELSKHVDSLITIPNDKLLKVLGRGISLLDAFGAANDVLKGAVQGIAELITRPGLMNVDFADVRTVMSEMGYAMMGSGVASGEDRAEEAAEMAISSPLLEDIDLSGARGVLVNITAGFDLRLDEFETVGNTIRAFASDNATVVIGTSLDPDMNDELRVTVVATGIGMDKRPEITLVTNKQVQQPVMDRYQQHGMAPLTQEQKPVAKVVNDNAPQTAKEPDYLDIPAFLR
notes: also called deletion mutant that lacks the C-terminal four amino acid variable region; source: E. coli BL21 (λDE3), purified like wild type FtsZ
Regarding B6, in data set [8], the binding result is given as “binds”.

B7: FtsZ(352AAA, Δ375-383) (domain or fragment, E. coli, UniProt P0A9A6 1-374, looked up)
chain: MFEPMELTNDAVIKVIGVGGGGGNAVEHMVRERIEGVEFFAVNTDAQALRKTAVGQTIQIGSGITKGLGAGANPEVGRNAADEDRDALRAALEGADMVFIAAGMGGGTGTGAAPVVAEVAKDLGILTVAVVTKPFNFEGKKRMAFAEQGITELSKHVDSLITIPNDKLLKVLGRGISLLDAFGAANDVLKGAVQGIAELITRPGLMNVDFADVRTVMSEMGYAMMGSGVASGEDRAEEAAEMAISSPLLEDIDLSGARGVLVNITAGFDLRLDEFETVGNTIRAFASDNATVVIGTSLDPDMNDELRVTVVATGIGMDKRPEITLVTNKQVQQPVMDRYQQHGMAPLTQEQAAAAKVVNDNAPQTAKEPDYLDI
notes: also called double mutant; source: E. coli BL21 (λDE3), purified like wild type FtsZ
Consider B7, for which the binding result in data set [8] and in [9] was “binds” each time.

B8: FtsZ(Δ375-383) (domain or fragment, E. coli, UniProt P0A9A6 1-374, looked up)
chain: B7 chain with A352K, A353P, A354V
notes: Alexa-labelled in the degradation reactions, unlabelled in co-sedimentation; also called deletion mutant lacking the C-terminal nine amino acids; source: E. coli BL21 (λDE3), purified like wild type FtsZ
Consider B8, for which the binding result in [9] was “binds”.

B9: MinC (natural protein)
chain: MSNTPIELKGSSFTLSVVHLHEAEPKVIHQALEDKIAQAPAFLKHAPVVLNVSALEDPVNWSAMHKAVSATGLRVIGVSGCKDAQLKAEIEKMGLPILTEGKEKAPRPAPTPQAPAQNTTPVTKTRLIDTPVRSGQRIYAPQCDLIVTSHVSAGAELIADGNIHVYGMMRGRALAGASGDRETQIFCTNLMAELVSIAGEYWLSDQIPAEFYGKAARLQLVENALTVQPLN
In [11], B9 gave an inhibition of degradation of fluorescent FtsZ (5 µM, with GTP) by ClpXP (0.5 µM) at 2, 5, 10 and 20 µM MinC; the pair that is blocked: FtsZ with ClpX (ClpXP) of 80%.
